Here are results for 20 molecules from patent US20110118131A1 (published 2011).

Sequences and labels used below:
B1: ING-1 light chain L29E (Fab, V domains shown)
VH: QIQLVQSGPELKKPGETVKISCKASGYTFTKYGMNWVKQAPGKGLKWMGWINTYTEEPTYGDDFKGRFAFSLETSASTANLQINNLKSEDTATYFCARFGSAVDYWGQGTSVTVSS
VL: DIVMTQAAFSNPVTLGTSGSISCRSSKSELHSNGITYLYWYLQKPGQSPQLLIYQMSNLASGVPDRFSSSGSGTDFTLRISRVEAEDVGVYYCAQNLELPRTFGGGTKLEMKR
notes: Fab, periplasmic extract
B2: ING-1 light chain L99N (Fab, V domains shown)
VH: QIQLVQSGPELKKPGETVKISCKASGYTFTKYGMNWVKQAPGKGLKWMGWINTYTEEPTYGDDFKGRFAFSLETSASTANLQINNLKSEDTATYFCARFGSAVDYWGQGTSVTVSS
VL: DIVMTQAAFSNPVTLGTSGSISCRSSKSLLHSNGITYLYWYLQKPGQSPQLLIYQMSNLASGVPDRFSSSGSGTDFTLRISRVEAEDVGVYYCAQNLENPRTFGGGTKLEMKR
notes: Fab, periplasmic extract
B3: ING-1 light chain L99E (Fab, V domains shown)
VH: QIQLVQSGPELKKPGETVKISCKASGYTFTKYGMNWVKQAPGKGLKWMGWINTYTEEPTYGDDFKGRFAFSLETSASTANLQINNLKSEDTATYFCARFGSAVDYWGQGTSVTVSS
VL: DIVMTQAAFSNPVTLGTSGSISCRSSKSLLHSNGITYLYWYLQKPGQSPQLLIYQMSNLASGVPDRFSSSGSGTDFTLRISRVEAEDVGVYYCAQNLEEPRTFGGGTKLEMKR
notes: Fab, periplasmic extract
B4: ING-1 light chain L29F (Fab, V domains shown)
VH: QIQLVQSGPELKKPGETVKISCKASGYTFTKYGMNWVKQAPGKGLKWMGWINTYTEEPTYGDDFKGRFAFSLETSASTANLQINNLKSEDTATYFCARFGSAVDYWGQGTSVTVSS
VL: DIVMTQAAFSNPVTLGTSGSISCRSSKSFLHSNGITYLYWYLQKPGQSPQLLIYQMSNLASGVPDRFSSSGSGTDFTLRISRVEAEDVGVYYCAQNLELPRTFGGGTKLEMKR
notes: Fab, periplasmic extract
B5: ING-1 light chain L99K (Fab, V domains shown)
VH: QIQLVQSGPELKKPGETVKISCKASGYTFTKYGMNWVKQAPGKGLKWMGWINTYTEEPTYGDDFKGRFAFSLETSASTANLQINNLKSEDTATYFCARFGSAVDYWGQGTSVTVSS
VL: DIVMTQAAFSNPVTLGTSGSISCRSSKSLLHSNGITYLYWYLQKPGQSPQLLIYQMSNLASGVPDRFSSSGSGTDFTLRISRVEAEDVGVYYCAQNLEKPRTFGGGTKLEMKR
notes: Fab, periplasmic extract
B6: ING-1 light chain L99H (Fab, V domains shown)
VH: QIQLVQSGPELKKPGETVKISCKASGYTFTKYGMNWVKQAPGKGLKWMGWINTYTEEPTYGDDFKGRFAFSLETSASTANLQINNLKSEDTATYFCARFGSAVDYWGQGTSVTVSS
VL: DIVMTQAAFSNPVTLGTSGSISCRSSKSLLHSNGITYLYWYLQKPGQSPQLLIYQMSNLASGVPDRFSSSGSGTDFTLRISRVEAEDVGVYYCAQNLEHPRTFGGGTKLEMKR
notes: Fab, periplasmic extract
B7: ING-1 light chain L29Q (Fab, V domains shown)
VH: QIQLVQSGPELKKPGETVKISCKASGYTFTKYGMNWVKQAPGKGLKWMGWINTYTEEPTYGDDFKGRFAFSLETSASTANLQINNLKSEDTATYFCARFGSAVDYWGQGTSVTVSS
VL: DIVMTQAAFSNPVTLGTSGSISCRSSKSQLHSNGITYLYWYLQKPGQSPQLLIYQMSNLASGVPDRFSSSGSGTDFTLRISRVEAEDVGVYYCAQNLELPRTFGGGTKLEMKR
notes: Fab, periplasmic extract
B8: ING-1 light chain L29R (Fab, V domains shown)
VH: QIQLVQSGPELKKPGETVKISCKASGYTFTKYGMNWVKQAPGKGLKWMGWINTYTEEPTYGDDFKGRFAFSLETSASTANLQINNLKSEDTATYFCARFGSAVDYWGQGTSVTVSS
VL: DIVMTQAAFSNPVTLGTSGSISCRSSKSRLHSNGITYLYWYLQKPGQSPQLLIYQMSNLASGVPDRFSSSGSGTDFTLRISRVEAEDVGVYYCAQNLELPRTFGGGTKLEMKR
notes: Fab, periplasmic extract
B9: ING-1 light chain L99D (Fab, V domains shown)
VH: QIQLVQSGPELKKPGETVKISCKASGYTFTKYGMNWVKQAPGKGLKWMGWINTYTEEPTYGDDFKGRFAFSLETSASTANLQINNLKSEDTATYFCARFGSAVDYWGQGTSVTVSS
VL: DIVMTQAAFSNPVTLGTSGSISCRSSKSLLHSNGITYLYWYLQKPGQSPQLLIYQMSNLASGVPDRFSSSGSGTDFTLRISRVEAEDVGVYYCAQNLEDPRTFGGGTKLEMKR
notes: Fab, periplasmic extract
B10: ING-1 light chain L99R (Fab, V domains shown)
VH: QIQLVQSGPELKKPGETVKISCKASGYTFTKYGMNWVKQAPGKGLKWMGWINTYTEEPTYGDDFKGRFAFSLETSASTANLQINNLKSEDTATYFCARFGSAVDYWGQGTSVTVSS
VL: DIVMTQAAFSNPVTLGTSGSISCRSSKSLLHSNGITYLYWYLQKPGQSPQLLIYQMSNLASGVPDRFSSSGSGTDFTLRISRVEAEDVGVYYCAQNLERPRTFGGGTKLEMKR
notes: Fab, periplasmic extract
B11: ING-1 light chain L97R (Fab, V domains shown)
VH: QIQLVQSGPELKKPGETVKISCKASGYTFTKYGMNWVKQAPGKGLKWMGWINTYTEEPTYGDDFKGRFAFSLETSASTANLQINNLKSEDTATYFCARFGSAVDYWGQGTSVTVSS
VL: DIVMTQAAFSNPVTLGTSGSISCRSSKSLLHSNGITYLYWYLQKPGQSPQLLIYQMSNLASGVPDRFSSSGSGTDFTLRISRVEAEDVGVYYCAQNRELPRTFGGGTKLEMKR
notes: Fab, periplasmic extract
B12: ING-1 light chain L30R (Fab, V domains shown)
VH: QIQLVQSGPELKKPGETVKISCKASGYTFTKYGMNWVKQAPGKGLKWMGWINTYTEEPTYGDDFKGRFAFSLETSASTANLQINNLKSEDTATYFCARFGSAVDYWGQGTSVTVSS
VL: DIVMTQAAFSNPVTLGTSGSISCRSSKSLRHSNGITYLYWYLQKPGQSPQLLIYQMSNLASGVPDRFSSSGSGTDFTLRISRVEAEDVGVYYCAQNLELPRTFGGGTKLEMKR
notes: Fab, periplasmic extract
B13: ING-1 light chain L29Y (Fab, V domains shown)
VH: QIQLVQSGPELKKPGETVKISCKASGYTFTKYGMNWVKQAPGKGLKWMGWINTYTEEPTYGDDFKGRFAFSLETSASTANLQINNLKSEDTATYFCARFGSAVDYWGQGTSVTVSS
VL: DIVMTQAAFSNPVTLGTSGSISCRSSKSYLHSNGITYLYWYLQKPGQSPQLLIYQMSNLASGVPDRFSSSGSGTDFTLRISRVEAEDVGVYYCAQNLELPRTFGGGTKLEMKR
notes: Fab, periplasmic extract
B14: ING-1 light chain L99S (Fab, V domains shown)
VH: QIQLVQSGPELKKPGETVKISCKASGYTFTKYGMNWVKQAPGKGLKWMGWINTYTEEPTYGDDFKGRFAFSLETSASTANLQINNLKSEDTATYFCARFGSAVDYWGQGTSVTVSS
VL: DIVMTQAAFSNPVTLGTSGSISCRSSKSLLHSNGITYLYWYLQKPGQSPQLLIYQMSNLASGVPDRFSSSGSGTDFTLRISRVEAEDVGVYYCAQNLESPRTFGGGTKLEMKR
notes: Fab, periplasmic extract
B15: ING-1 light chain L97D (Fab, V domains shown)
VH: QIQLVQSGPELKKPGETVKISCKASGYTFTKYGMNWVKQAPGKGLKWMGWINTYTEEPTYGDDFKGRFAFSLETSASTANLQINNLKSEDTATYFCARFGSAVDYWGQGTSVTVSS
VL: DIVMTQAAFSNPVTLGTSGSISCRSSKSLLHSNGITYLYWYLQKPGQSPQLLIYQMSNLASGVPDRFSSSGSGTDFTLRISRVEAEDVGVYYCAQNDELPRTFGGGTKLEMKR
notes: Fab, periplasmic extract
B16: ING-1 light chain L30W (Fab, V domains shown)
VH: QIQLVQSGPELKKPGETVKISCKASGYTFTKYGMNWVKQAPGKGLKWMGWINTYTEEPTYGDDFKGRFAFSLETSASTANLQINNLKSEDTATYFCARFGSAVDYWGQGTSVTVSS
VL: DIVMTQAAFSNPVTLGTSGSISCRSSKSLWHSNGITYLYWYLQKPGQSPQLLIYQMSNLASGVPDRFSSSGSGTDFTLRISRVEAEDVGVYYCAQNLELPRTFGGGTKLEMKR
notes: Fab, periplasmic extract
B17: ING-1 light chain L99Q (Fab, V domains shown)
VH: QIQLVQSGPELKKPGETVKISCKASGYTFTKYGMNWVKQAPGKGLKWMGWINTYTEEPTYGDDFKGRFAFSLETSASTANLQINNLKSEDTATYFCARFGSAVDYWGQGTSVTVSS
VL: DIVMTQAAFSNPVTLGTSGSISCRSSKSLLHSNGITYLYWYLQKPGQSPQLLIYQMSNLASGVPDRFSSSGSGTDFTLRISRVEAEDVGVYYCAQNLEQPRTFGGGTKLEMKR
notes: Fab, periplasmic extract
B18: ING-1 light chain L30K (Fab, V domains shown)
VH: QIQLVQSGPELKKPGETVKISCKASGYTFTKYGMNWVKQAPGKGLKWMGWINTYTEEPTYGDDFKGRFAFSLETSASTANLQINNLKSEDTATYFCARFGSAVDYWGQGTSVTVSS
VL: DIVMTQAAFSNPVTLGTSGSISCRSSKSLKHSNGITYLYWYLQKPGQSPQLLIYQMSNLASGVPDRFSSSGSGTDFTLRISRVEAEDVGVYYCAQNLELPRTFGGGTKLEMKR
notes: Fab, periplasmic extract
B19: ING-1 light chain L29W (Fab, V domains shown)
VH: QIQLVQSGPELKKPGETVKISCKASGYTFTKYGMNWVKQAPGKGLKWMGWINTYTEEPTYGDDFKGRFAFSLETSASTANLQINNLKSEDTATYFCARFGSAVDYWGQGTSVTVSS
VL: DIVMTQAAFSNPVTLGTSGSISCRSSKSWLHSNGITYLYWYLQKPGQSPQLLIYQMSNLASGVPDRFSSSGSGTDFTLRISRVEAEDVGVYYCAQNLELPRTFGGGTKLEMKR
notes: Fab, periplasmic extract
B20: ING-1 light chain L30E (Fab, V domains shown)
VH: QIQLVQSGPELKKPGETVKISCKASGYTFTKYGMNWVKQAPGKGLKWMGWINTYTEEPTYGDDFKGRFAFSLETSASTANLQINNLKSEDTATYFCARFGSAVDYWGQGTSVTVSS
VL: DIVMTQAAFSNPVTLGTSGSISCRSSKSLEHSNGITYLYWYLQKPGQSPQLLIYQMSNLASGVPDRFSSSGSGTDFTLRISRVEAEDVGVYYCAQNLELPRTFGGGTKLEMKR
notes: Fab, periplasmic extract

The target of the assay is T1, Ep-CAM (UniProt P16422 24-265, limits assumed).
T1 construct: Amine coupled to a CM5 chip in the Biacore assays
T1 sequence (looked up): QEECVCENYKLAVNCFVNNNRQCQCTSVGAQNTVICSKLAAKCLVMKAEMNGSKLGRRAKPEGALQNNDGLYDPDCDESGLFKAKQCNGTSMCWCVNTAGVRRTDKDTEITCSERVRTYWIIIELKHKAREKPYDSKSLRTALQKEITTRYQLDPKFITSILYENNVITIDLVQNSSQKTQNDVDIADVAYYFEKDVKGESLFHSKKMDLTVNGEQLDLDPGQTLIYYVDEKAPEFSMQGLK
Put plainly: Biacore, Fab periplasmic extract. (In general: Surface plasmon resonance follows binding to a sensor surface in real time, without labels.)
On to B1, for which the binding result is on record as “no binding”.
For B2, the “fold difference in affinity vs parental ING-1” value (“fold difference in affinity” for short) stood at 2 fold.
In the case of B3, the “fold difference in affinity” value came to 0.01 fold.
Take B4: the binding result is reported as “no binding”.
For B5, the “fold difference in affinity” value came to 0.02 fold.
B6: the “fold difference in affinity” value was determined as 0.05 fold.
As for B7, the binding result is listed as “no binding”.
Take B8: the binding result is “no binding”.
As for B9, the “fold difference in affinity” value worked out at 0.02 fold.
Still for that read-out and setting: with B10 the figure was 0.04 fold.
Regarding B11, the binding result was “no binding”.
As to B12, the binding result is recorded as “no binding”.
Turning to B13, the binding result is reported as “no binding”.
Turning to B14, the “fold difference in affinity” value amounted to 0.04 fold.
As for B15, the binding result is given as “no binding”.
Take B16: the binding result is listed as “no binding”.
Regarding B17, the “fold difference in affinity” value was found to be 0.02 fold.
In the case of B18, the binding result is given as “no binding”.
Regarding B19, the binding result is “no binding”.
Consider B20, for which the binding result is recorded as “no binding”.
